Reference: PMC11392804

Experiments:
[1] = SEC; Superdex 75 Increase 10/300 GL, ~2 mg ml^−1 (76 μM) protein loaded via 100 μl loop, 0.8 ml min^−1, 150 mM NaCl, 20 mM HEPES pH 7.2; monomer and dimer percentages from integrated peak areas; dimer to monomers
[2] = biological target: StayGold (Cytaeis uchidae (parent GFP)); test: as above

| stoichiometry N [2] | Substance | percent dimer (SEC peak areas) [1] | percent monomer (SEC peak areas) [1] |
| --- | --- | --- | --- |
| 2 | StayGold | the original StayGold is ~98% dimer | – |
| – | mStayGold (StayGold E138D) | – | the E138D mutant is more than 99% monomer |
